Test results reported in paper PMC10715030.

Key:
[1] = molecular target: c-type human lysozyme (human) (UniProt P61626)
[2] = molecular target: AP205 capsid virus-like particle displaying the complementary Catcher (SpyCatcher-VLP) (not stated | Acinetobacter phage AP205); assay: SDS-PAGE of covalent Tag/Catcher coupling (densitometry); N-SliC or C-SliC mixed with complementary SpyCatcher VLPs at a molar ratio of 1:3, 2 h, room temperature, PBS; covalently coupled band at ~45 kDa; coupling efficiency by densitometry (ImageQuant)

UniProt P61626, sequence (P61626 19-148): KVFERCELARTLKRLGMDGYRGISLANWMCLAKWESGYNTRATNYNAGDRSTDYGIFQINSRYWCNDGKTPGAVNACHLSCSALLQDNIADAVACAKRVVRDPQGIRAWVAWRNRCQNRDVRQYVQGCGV

“SliC with the N-terminal SpyTag (N-SliC)” was tested, and the lytic activity of HL (2.5 µM) on DQ lysozyme substrate (EnzChek Lysozyme Assay Kit), N-SliC 0-5 µM, 30 min at 37°C before substrate [1] was > 1.25 µM, the cVLP subunits carrying SliC (of 180) (subunits per cVLP) [2] was 140 and the coupling efficiency [2] was 77%.
